In assay [1] the target is double-labelled SecYEG(Bpy/Trp) (E. coli) (UniProt P0AGA2).
In assay [2] the target is SecYEG translocon embedded in nanodiscs, labelled for FRET titrations (E. coli) (UniProt P0AGA2). As to the kind of experiment: FRET or BRET; titration of nanodisc-embedded translocon with vacant ribosomes or Lep75-RNC (Supplementary Fig. 3); FRET between labels in the translocon and the ribosome is told for panel c; buffer A (20 mM HEPES pH 7.5, 70 mM NH4Cl, 30 mM KCl, 7 mM MgCl2, 10% glycerol), 25 °C. (Bioluminescence resonance energy transfer reports proximity on the nanometre scale.)

Assay [3] concerns the target double-labelled SecYEG(Bpy/Trp) (E. coli) (UniProt P0AGA2). The source holds these as a separate data set.
The target of assay [4] is SecYEG translocon embedded in nanodiscs, labelled for FRET titrations (E. coli) (UniProt P0AGA2). As to the kind of experiment: FRET or BRET; titration monitoring FRET between labels in the translocon and the ribosome, at the lower temperature (4 °C).

As a reminder, the Kd is the constant that tells how readily two partners part at equilibrium.

Sequence of DsbA100-RNC (P0AEG4 whole entry, looked up): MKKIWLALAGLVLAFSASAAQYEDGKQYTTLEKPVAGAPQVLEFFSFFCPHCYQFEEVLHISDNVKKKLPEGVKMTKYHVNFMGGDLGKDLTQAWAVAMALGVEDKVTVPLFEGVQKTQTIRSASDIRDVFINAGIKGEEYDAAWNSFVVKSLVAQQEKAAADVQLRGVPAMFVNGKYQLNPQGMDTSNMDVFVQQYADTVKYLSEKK

Consider “DsbA100-RNC (from UniProt P0AEG4 1-208) (complex)”, for which, in assay [1], the increase of Bpy fluorescence of nanodisc-embedded SecYEG(Bpy/Trp) (50 nM) on addition of DsbA100-RNC (200 nM), 25 °C is > 20%.

As for “Lep75-RNC (ribosome-nascent-chain complex carrying 75 N-terminal amino acids of leader peptidase) (from UniProt P00803 1-75)”, the Kd in assay [2] came to 0.01 µM. Further, in assay [3], the increase of Bpy fluorescence of nanodisc-embedded SecYEG(Bpy/Trp) (50 nM) on addition of Lep75-RNC (200 nM), 25 °C (loss of PET quenching, lateral gate opening) was 30% and the net increase of Bpy fluorescence of SecYEG(Bpy/Trp) on Lep75-RNC binding, after the change seen with single-labelled SecYEG(Bpy), 25 °C amounted to 25%.

Regarding “TolB100-RNC (from UniProt P0A855 1-430) (complex)”, the increase of Bpy fluorescence of nanodisc-embedded SecYEG(Bpy/Trp) (50 nM) on addition of TolB100-RNC (200 nM), 25 °C in assay [1] is > 20%.

Consider “vacant 70S ribosomes from E. coli MRE600 (complex)”, for which the Kd in assay [2] is 0.02 µM; in assay [4], 0.01 µM. The substance further came in with an increase of Bpy fluorescence of nanodisc-embedded SecYEG(Bpy/Trp) (50 nM) on addition of vacant 70S ribosomes (200 nM), 25 °C (loss of PET quenching, lateral gate opening) in assay [3] of 15%. The increase of Bpy fluorescence of SecYEG(Bpy/Trp) solubilised with detergent (0.03% DDM, no nanodisc) on addition of non-translating ribosomes, 25 °C in assay [1] amounted to 15%.

Source of the values: article PMC4218953.
